These results are taken from the supplement of paper PMC10126150.

± gives the standard deviation of the averaged measurements.

The subject of this data set is ATP. Put plainly: switch fluorescence ratio, 500 uM ATP over buffer (Cy3 cluster intensity, sum of 5 cycles each) (fold (ratio)); higher = stronger signal-on switching upon ATP binding; sequences stand for … in TCGTCGGCAGCGTCAGATGTGTATAAGAGACAGTTTTTTTTTTTTTTTTTTTTTTTTT…TC. Particulars: aptamer strand: ATP DNA aptamer (quencher-CACCTGGGGGAGTATTGCGGAGGAAGG + anchor), 100 nM annealed; ATP concentration: 500 uM. In short, it runs like this: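 Exposure to 500 uM ATP lasted 15 min at 22 °C before imaging, and a selection-buffer image was taken beforehand, for Cy3-labelled switching-strand clusters on a modified Illumina MiSeq flow-cell annealed to 100 nM quencher-labelled ATP aptamer. Five buffer/ATP cycles were run with NaOH stripping and re-annealing between them. The fluorescence ratio per cluster is summed target-cycle over summed buffer-cycle Cy3 intensity, averaged per switch-domain sequence. Clusters outside 100-1000 RFU were excluded.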
Consider TATGTATCTA, for which the switch fluorescence ratio came to 1.02 ± 0.043.

Turning to TAAAGGTCAG, the switch fluorescence ratio amounted to 0.996 ± 0.018. The same measure for TCAGATTGTT: 0.9623 ± 0.0028. Next, CGTCACGGGA: 1.05 ± 0.036; TACCAAGGGA: 0.991 ± 0.00097; ATTTGATTCA: 0.997 ± 0.012.

For the sequence GGGTAGCGGG, the switch fluorescence ratio was 1.01 ± 0.033. On to GGGGAAGATA, for which the switch fluorescence ratio is 0.9862 ± 0.0025. GACAGGGAAC: the switch fluorescence ratio amounted to 1.01 ± 0.021. The same measure for GCTTGGATTG: 1.01 ± 0.054. On to GTTCGGGGGT, for which the switch fluorescence ratio is 0.986 ± 0.025. Next, AATTTGTGGA: 0.9855 ± 0.007; GGGGGTTATG: 1.01 ± 0.024. The same measure for CAAGATCATT: 1.008 ± 0.0036; for TGAAAAAATT: 1.02 ± 0.071.

Turning to CATAGGAGAC, the switch fluorescence ratio is 1 ± 0.017. Next, CCGTTTGTTT: 1.005 ± 0.005; TGCCAATGGG: 1 ± 0.038.

As for TCTCGGCATT, the switch fluorescence ratio was 1.46 ± 0.23.

For AGACACGTTA, the switch fluorescence ratio worked out at 1.28 ± 0.017. The same measure for AGTTAGTGGT: 0.978 ± 0.023. Next, TTGACCAAAA: 1.03 ± 0.055; AGATGTCTAC: 0.989 ± 0.018; GATCAGTTTT: 0.977 ± 0.016. The same measure for ATGAGGGGCA: 0.98 ± 0.026. Turning to ACGGAGGGGG, the switch fluorescence ratio is 0.96 ± 0.042.

On to TTGAAAGGGT, for which the switch fluorescence ratio came out at 0.981 ± 0.087.

For AAATTCATGT, the switch fluorescence ratio is 0.996 ± 0.028. Next, TAAGGGGCGT: 1.03 ± 0.035; CGCCCCTGAA: 0.997 ± 0.017; CCGGTTAAGG: 1 ± 0.05. Next, TGGAAGCGTT: 0.98 ± 0.041; GAGAGGGAAG: 1.004 ± 0.0077; AGGTTGAGAT: 1.04 ± 0.041.

Turning to CGCGGGGAAG, the switch fluorescence ratio turned out to be 0.98 ± 0.053. The same measure for AGTGGCCGCG: 1.02 ± 0.016; for AGAGGGGTTG: 0.972 ± 0.016. The same measure for TCGAGGTATA: 2.94 ± 2.6. Consider GCTTCAGAGT, for which the switch fluorescence ratio was determined as 1 ± 0.02. Next, ACCTAACAGG: 0.9728 ± 0.0095. Turning to GTTGCTGATT, the switch fluorescence ratio was determined as 1.02 ± 0.04. Next, AGATGCGGTA: 1.01 ± 0.029; TTGGGCTACG: 1.002 ± 0.0048. The same measure for ACGGGGGGTG: 1.01 ± 0.077. The same measure for TTAGGGACGC: 1.08 ± 0.025; for TGGGTACTTT: 0.994 ± 0.016; for TACGGGCGGA: 1.02 ± 0.034.

As for AAGGGCCGCG, the switch fluorescence ratio stood at 1 ± 0.017.

On to AGGGTCTTGC, for which the switch fluorescence ratio was determined as 0.998 ± 0.014. Turning to GTTTAATTTT, the switch fluorescence ratio is 0.987 ± 0.033. Next, TCAGAATCGT: 0.988 ± 0.026; TCCTCATTTG: 1.005 ± 0.0078.

For GGGAAATCGT, the switch fluorescence ratio was determined as 1.02 ± 0.012. The same measure for GTCGTAGGAT: 0.9915 ± 0.0065; for GGGAGAAATT: 1.02 ± 0.061; for ATCTTGAGAC: 1.02 ± 0.042.

In the case of GGGAGCATTG, the switch fluorescence ratio came out at 1.02 ± 0.037. With GGAATGAAG, the switch fluorescence ratio amounted to 1.012 ± 0.01. The same measure for CCTAGGGGGT: 1.02 ± 0.029. The same measure for GAGGTTCGCT: 0.979 ± 0.069; for GGTTTAGAGA: 1.02 ± 0.069. In the case of TGTGCGGGTT, the switch fluorescence ratio turned out to be 1.02 ± 0.02. Next, GAATTGTGGG: 0.989 ± 0.039; GAATCAAAAA: 1 ± 0.088.

Take TTCTAAGGGG: the switch fluorescence ratio amounted to 1.93 ± 1.3. The same measure for TGCGTTTATT: 0.994 ± 0.015; for AGAGAGGACG: 1.02 ± 0.033; for TTTAAAGACT: 1.01 ± 0.056.

AGGTTTGACA: the switch fluorescence ratio is 1.027 ± 0.0067. The same measure for TACCTGAAAA: 0.985 ± 0.022. The same measure for CAGTTCATCG: 1.03 ± 0.025; for TCCGTAGTGT: 2.12 ± 0.37. The same measure for CGCGACTTAA: 1.044 ± 0.0047; for AAAGATGTCA: 1.005 ± 0.0029.

For GGAGACAGGA, the switch fluorescence ratio worked out at 1.04 ± 0.012.

Consider GAATGAAGGT, for which the switch fluorescence ratio stood at 0.985 ± 0.013. The same measure for AGTAAGATAA: 0.986 ± 0.058. Next, ATATTGTAAC: 0.98 ± 0.013. The same measure for AATGTCATCA: 0.993 ± 0.013; for AGCGGCACAC: 1.073 ± 0.0095. GCCTTTTGCA: the switch fluorescence ratio worked out at 1.01 ± 0.03. Next, TTGACGATGT: 1.17 ± 0.19; CTAAGAGGAC: 0.9921 ± 0.0033; TTATTTGATA: 1 ± 0.034. Next, AAGAAAATAC: 1 ± 0.024; GTCGTGGCAA: 1.04 ± 0.022; GCCCTACAAC: 0.998 ± 0.012. The same measure for TTAAGACTTG: 1 ± 0.012.

As for CAATGATCAG, the switch fluorescence ratio was found to be 1.006 ± 0.0081.

As for GTGGAACCTT, the switch fluorescence ratio was 1.24 ± 0.2.

As to AGATGAATGC, the switch fluorescence ratio came out at 0.989 ± 0.011. Next, TTGAGTTTGG: 0.985 ± 0.022; CGGTGAGGGT: 0.9863 ± 0.0071. Next, GGTTTTCTGT: 0.997 ± 0.016; TTGTTAGGAT: 1.07 ± 0.062. The same measure for GGTAGATGGT: 1.01 ± 0.012; for AGGGGGTCCG: 1.03 ± 0.049. As for TTGAAGTTAC, the switch fluorescence ratio is 1.111 ± 0.0072.

On to GTATTTCTTA, for which the switch fluorescence ratio amounted to 0.974 ± 0.0099. Consider TTGGACTAGG, for which the switch fluorescence ratio came to 1.02 ± 0.024. The same measure for TGTTATATAG: 1.01 ± 0.033. Next, CGCTACGTGT: 1.02 ± 0.038; TTTTGTGGGC: 1.01 ± 0.055; TTTTATACCA: 1.04 ± 0.039. For the sequence TTAAAGACGG, the switch fluorescence ratio was determined as 1.06 ± 0.11. The same measure for GAGATAGAGG: 1.006 ± 0.0087; for TCTCGTGAGA: 0.997 ± 0.053; for GATGAGTGTG: 0.964 ± 0.041. Next, TTATGTGACG: 0.994 ± 0.082; TTTTTTGACG: 0.9938 ± 0.0062; AGTGGATTCT: 1.004 ± 0.0022.

On to CGATTGGGTA, for which the switch fluorescence ratio worked out at 0.968 ± 0.038.

For the sequence AGGCCATTGG, the switch fluorescence ratio came to 1.04 ± 0.024.

With TTGGTTGCGG, the switch fluorescence ratio amounted to 1.02 ± 0.024.

As for TCAAGGAGTT, the switch fluorescence ratio came to 0.9773 ± 0.0047. With TAACGGCGCG, the switch fluorescence ratio was found to be 1.028 ± 0.0024. Next, ATATTACGAA: 1.02 ± 0.035; ATGCGTGGAA: 1.02 ± 0.027; GGAATAGGGT: 0.98 ± 0.052. Next, GGTGGAATCT: 1.02 ± 0.052.
